One block for each binder: values may come before it.
Legend:
[1] = target: T1, human CDH6 on tumor cells (OVCAR3 cells, PA-1 cells) (human, UniProt P55285 54-790); assay: FACS, OVCAR3 cells
T1 sequence: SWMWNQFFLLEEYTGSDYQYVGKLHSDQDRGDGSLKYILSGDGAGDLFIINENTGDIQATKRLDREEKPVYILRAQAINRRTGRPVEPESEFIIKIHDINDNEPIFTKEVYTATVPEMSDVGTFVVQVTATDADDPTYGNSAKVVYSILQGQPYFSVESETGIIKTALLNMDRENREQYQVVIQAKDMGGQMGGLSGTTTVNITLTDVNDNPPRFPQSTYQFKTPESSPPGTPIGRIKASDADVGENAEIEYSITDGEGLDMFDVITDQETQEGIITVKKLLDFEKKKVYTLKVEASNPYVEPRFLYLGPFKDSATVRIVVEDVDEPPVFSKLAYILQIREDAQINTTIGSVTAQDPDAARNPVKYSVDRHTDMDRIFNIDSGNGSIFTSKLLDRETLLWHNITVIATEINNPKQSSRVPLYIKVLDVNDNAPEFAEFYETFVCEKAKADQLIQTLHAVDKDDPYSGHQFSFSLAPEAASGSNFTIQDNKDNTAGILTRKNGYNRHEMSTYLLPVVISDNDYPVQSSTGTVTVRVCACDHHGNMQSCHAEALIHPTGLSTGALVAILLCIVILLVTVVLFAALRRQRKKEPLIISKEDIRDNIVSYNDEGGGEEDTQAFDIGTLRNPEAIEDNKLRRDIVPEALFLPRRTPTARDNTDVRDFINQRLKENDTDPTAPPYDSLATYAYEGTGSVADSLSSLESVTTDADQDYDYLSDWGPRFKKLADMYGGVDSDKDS
Description: (§1) OVCAR3 cells with high expression of CDH6 and PA-1 cells with moderate expression of CDH6 were used to detect the binding activity of the antibodies to the cells. […] The cells were washed once with PBS, counted, resuspended to 2×10⁶ cells/mL in an FACS buffer (PBS+2% FBS), and then added to a 96-well plate at 50 μL/well. The chimeric antibodies were diluted with FACS buffer (PBS+2% FBS) and added to the 96-well plate at 50 μL/well, and the plate was incubated at 4° C. for 1 h. […] The dilution was added to the 96-well plate at 50 μL/well, and the plate was incubated at 4° C. for 1 h. After the plates were centrifuged and washed 2 times with PBS, the cells were resuspended in an FACS buffer. The mean fluorescence intensity (MFI) was measured using FACS Canton II (BD). Analysis was performed by the GraphPad Prism software, data were fitted, and EC50 values were calculated. The chimeric antibodies tested had strong binding to both OVCAR3 cells and PA-1 cells.

[2] = target: T2, monkey CDH6 protein (cynoCDH6 ECD-his) (monkey (cyno), UniProt A0A2K5TW62 19-615); assay: ELISA, coated antigen
T2 construct: range 19-615; also called Cyno CDH6-his; not shown: his tag
T2 sequence: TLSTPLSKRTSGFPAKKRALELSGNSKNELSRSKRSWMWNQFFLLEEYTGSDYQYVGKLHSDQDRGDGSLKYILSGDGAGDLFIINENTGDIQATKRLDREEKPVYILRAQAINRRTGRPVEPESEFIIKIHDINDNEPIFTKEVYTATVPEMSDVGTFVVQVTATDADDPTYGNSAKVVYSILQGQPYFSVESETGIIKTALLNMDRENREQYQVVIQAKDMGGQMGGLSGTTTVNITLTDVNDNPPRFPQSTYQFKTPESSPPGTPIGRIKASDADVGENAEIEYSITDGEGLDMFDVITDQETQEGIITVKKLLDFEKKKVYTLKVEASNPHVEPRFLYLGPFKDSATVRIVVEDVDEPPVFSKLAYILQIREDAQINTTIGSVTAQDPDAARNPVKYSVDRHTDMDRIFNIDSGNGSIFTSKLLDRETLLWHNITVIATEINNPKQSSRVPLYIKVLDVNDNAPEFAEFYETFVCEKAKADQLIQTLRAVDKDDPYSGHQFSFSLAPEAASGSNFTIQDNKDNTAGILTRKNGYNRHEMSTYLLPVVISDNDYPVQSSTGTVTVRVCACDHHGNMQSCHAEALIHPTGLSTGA
Description: Human CDH6 protein (hCDH6 ECD-his, conventionally synthesized), monkey CDH6 protein (cynoCDH6 ECD-his, conventionally synthesized; the cynoCDH6 ECD sequence was derived from Uniprot #A0A2K5TW62 (19-615)), and murine CDH6 protein (mCDH6 ECD-his, conventionally synthesized; the mCDH6 ECD sequence was derived from Uniprot #P97326 (19-615)) were diluted with PBS to a final concentration of 1 μg/mL, and added to a 96-well ELISA plate at 100 μL/well. The plate was incubated at 4° C. overnight. The next day, the plate was washed 3 times with a plate washing solution (PBS+0.01% (v/v) Tween 20), and a blocking buffer (PBS+0.01% (v/v) Tween 20+2% (w/w) BSA) was added for blocking at room temperature for 2 h. The blocking buffer was discarded, and the plate was washed 3 times. The chimeric antibodies were diluted with 1% BSA+PBS (purchased from Cytiva, Cat. No. SH30264.01) and added to the 96-well plate at 50 μL/well. After incubation at 37° C. for 2 h, the plate was washed 3 times with a plate washing solution. […] The plate was incubated at 37° C. for 1 h and then washed 5 times with a plate washing solution. A TMB substrate (purchased from Seracare, Cat. No. 5120-0077) was added at 50 μL/well and incubated at room temperature for 10 min, then a stop solution (1.0 N HCl) was added at 50 μL/well. OD450 nm values were read using a microplate reader (Biotek). Analysis was performed by the GraphPad Prism software, data were fitted, and EC50 values were calculated. The chimeric antibodies tested all had strong binding to the human CDH6 protein, the monkey CDH6 protein, and the murine CDH6 protein.

[3] = target: T1, human CDH6 on tumor cells (OVCAR3 …); assay: FACS, PA-1 cells
Description: as §1

EC50 [1]: 0.8 nM
Max MFI [1]: 9730 MFI
EC50 [2]: 0.103 nM
Max OD450 [2]: 2.18 OD450
EC50 [3]: 1.09 nM
Max MFI [3]: 1880 MFI
B1: DS-H01L02 (antibody, human IgG1, kappa, V domains shown)
VH: EVQLVQSGAEVKKPGASVKVSCKASGYTFTRNFMHWVRQAPGQGLEWMGWIYPGDGETEYAQKFQGRVTITADTSTSTAYMELSSLRSEDTAVYYCARGVYGGFAGGYFDFWGQGTLVTVSS
VL: DIQMTQSPSSLSASVGDRVTITCKASQNIYKNLAWYQQKPGKAPKLLIYDANTLQTGVPSRFSGSGSGSDFTLTISSLQPEDFATYFCQQYYSGWAFGQGTKVEIKR
notes: Positive control, variable regions from WO2018212136A1; also called positive control anti-human CDH6 antibody

EC50 [1]: 1.92 nM
Max MFI [1]: 11500 MFI
EC50 [2]: 0.039 nM
Max OD450 [2]: 2.44 OD450
EC50 [3]: 1.46 nM
Max MFI [3]: 3600 MFI
B2: NOV0712 (antibody, human IgG1, kappa, V domains shown)
VH: QVQLLESGGGLVQPGGSLRLSCAASGFTFSSHGMHWVRQAPGKGLEWVSVISGSGSNTGYADSVKGRFTISRDNSKNTLYLQMNSLRAEDTAVYYCARQWGSYAFDSWGQGTLVTVSS
VL: DIQMTQSPSSLSASVGDRVTITCRASQSISSYLNWYQQKPGKAPKLLIYAVSTLQSGVPSRFSGSGSGTDFTLTISSLQPEDFATYYCQQSGTFPPTTFGQGTKVEIKR
notes: as for B1
